pKd: −log10 of the molar value.
Tests used:
[1] = molecular target: hexasome: (H3-H4)2 tetramer with one H2A-H2B dimer on 170 bp Widom 601 DNA (Xenopus laevis) (UniProt P84233); assay: FRET or BRET; single-molecule FRET with multi-parameter fluorescence detection, dynPDA and trace analysis, global four-state kinetic model; IβIα-wt nucleosomes on 170 bp Widom 601 DNA (dyes on the DNA), 20 pM labelled, total concentration varied with unlabelled nucleosomes; 150 mM NaCl, TE buffer pH 7.5, 1 mM ascorbic acid, 0.01% Nonidet P40; hexasome and tetramer stand on the DNA
[2] = molecular target: (H3-H4)2 tetramer (wild type Xenopus laevis recombinant histones) (Xenopus laevis) (UniProt P84233); assay: as above

pKd [1]: 10.41 | relaxation time tR of octasome/hexasome exchange (estimated for [H2A-H2B] ≈10 pM) [1]: < 300 s | pKd [2]: < 11.70 | relaxation time tR of hexasome/tetrasome exchange (estimated for [H2A-H2B] ≈10 pM) [2]: > 10000 s
Substance: H2A-H2B dimer (wild type Xenopus laevis recombinant histones) (from UniProt P06897 2-120; P02281 2-126) (complex)

Reference: publication PMC6219519
